Source: patent publication US20240158494A1 (Biogen, published 2024)

T1: human transferrin receptor 2 (TfR2) overexpressed on BaF3 cells (human, UniProt Q9UP52 1-801)
T1 construct: whole, on cells
T1 sequence (looked up): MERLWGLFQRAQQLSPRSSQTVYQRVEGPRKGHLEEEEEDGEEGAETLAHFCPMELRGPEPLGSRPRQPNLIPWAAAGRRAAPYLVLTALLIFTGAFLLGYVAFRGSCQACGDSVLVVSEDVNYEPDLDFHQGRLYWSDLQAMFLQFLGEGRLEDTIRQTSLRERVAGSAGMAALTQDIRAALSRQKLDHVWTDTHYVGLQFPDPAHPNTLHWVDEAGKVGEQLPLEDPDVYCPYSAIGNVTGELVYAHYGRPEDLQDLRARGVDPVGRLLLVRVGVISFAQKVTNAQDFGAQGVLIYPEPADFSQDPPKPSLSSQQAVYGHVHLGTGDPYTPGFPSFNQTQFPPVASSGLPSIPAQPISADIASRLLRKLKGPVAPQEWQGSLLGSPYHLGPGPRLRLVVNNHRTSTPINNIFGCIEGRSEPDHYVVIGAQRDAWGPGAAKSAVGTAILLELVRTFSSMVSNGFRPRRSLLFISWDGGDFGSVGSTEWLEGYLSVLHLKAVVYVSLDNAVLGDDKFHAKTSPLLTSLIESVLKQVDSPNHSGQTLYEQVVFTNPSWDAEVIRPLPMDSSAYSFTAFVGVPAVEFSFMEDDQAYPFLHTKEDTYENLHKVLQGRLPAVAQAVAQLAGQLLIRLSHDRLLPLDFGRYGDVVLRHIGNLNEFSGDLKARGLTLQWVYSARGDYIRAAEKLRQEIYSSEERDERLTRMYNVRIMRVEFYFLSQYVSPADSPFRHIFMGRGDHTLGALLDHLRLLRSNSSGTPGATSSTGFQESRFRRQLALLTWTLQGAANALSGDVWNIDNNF

B1: TfR1 ANTIBODY-A HC-H2C hIgG4Fab/LC-L0 hKappa (ΔC214) (Fab, V domains shown)
VH: QSLVESGGGLVQPGGSLRLSCAASGIDFSSSGYMCWVRQAPGKGLEWVGCIYTYSSNTYYAASVKGRFTISKTSSTTVYLQMNSLKTEDTAVYYCARGTYGYTGYTYTMGYFSLWGQGTLVTVSS
VL: DIQMTQSPSTLSASVGDRVTITCQASQNINSYLAWYQQKPGKAPKLLIYRASSLESGVPSRFSGSGSGTEFTLTISSLQPDDFATYYCQSYYYSGSSNYNAFGGGTKVEIKR
notes: also called exemplary antibody (ii)
B2: chimeric ANTIBODY-A mAb (RabANTIBODY-A, bivalent huIgG1) (antibody, V domains shown)
VH: QSLEESGGGLVQPGASLTLTCKASGIDFSSSGYMCWVRQAPGKGLEWIGCIYTYSSNTYYASWAKGRFTISKTSSTTVTLQMTSLTAADTATYFCARGTYGYTGYTYTMGYFSLWGPGTLVTVSS
VL: ELDMTQTPASVEAAVGGTVTIKCQASQNINSYLAWYQQKPGQPPKLLIYRASTLASGVPSRFKGSGSGTEFTLTISDLECADAATYYCQSYYYSGSSNYNAFGGGTELEIL
notes: rabbit variable regions with a human IgG1 framework, bivalent huIgG1; also called RabAB-A
B3: chimeric ANTIBODY B mAb (RabANTIBODY-B, bivalent huIgG1) (antibody, V domains shown)
VH: QSLEESGGGLVQPEGSLTLTCKASGFSFSNSYWICWVRQAPGKGLEWIGCINTDADSTNYASWARGRFTISKTSSTTVTLQMTSLTAADTASYFCARQNNVFDPGYNLWGPGTLVTVSS
VL: ELVLTQTPASVSEAVGGTVTIKCQASQNIGSNLAWYQQKPGQPPKLLIYDASKLASGVPSRFSGSGSGTEFTLTISDLECADAATYYCQCTVRGGAYGNAFGGGTEVVVK
notes: rabbit variable regions with a human IgG1 framework, bivalent huIgG1; also called rabAB-B

Experiments:
[1] = target: T2, mouse transferrin receptor (TfR1) (mouse, UniProt Q62351 1-763, limits assumed); assay: not described
T2 construct: form and assay not described; also called mouse TfR

[2] = target: T1, human transferrin receptor 2 (TfR2) …; assay: FACS on BaF3 cells overexpressing human TfR2

T2 sequence (Q62351 whole entry): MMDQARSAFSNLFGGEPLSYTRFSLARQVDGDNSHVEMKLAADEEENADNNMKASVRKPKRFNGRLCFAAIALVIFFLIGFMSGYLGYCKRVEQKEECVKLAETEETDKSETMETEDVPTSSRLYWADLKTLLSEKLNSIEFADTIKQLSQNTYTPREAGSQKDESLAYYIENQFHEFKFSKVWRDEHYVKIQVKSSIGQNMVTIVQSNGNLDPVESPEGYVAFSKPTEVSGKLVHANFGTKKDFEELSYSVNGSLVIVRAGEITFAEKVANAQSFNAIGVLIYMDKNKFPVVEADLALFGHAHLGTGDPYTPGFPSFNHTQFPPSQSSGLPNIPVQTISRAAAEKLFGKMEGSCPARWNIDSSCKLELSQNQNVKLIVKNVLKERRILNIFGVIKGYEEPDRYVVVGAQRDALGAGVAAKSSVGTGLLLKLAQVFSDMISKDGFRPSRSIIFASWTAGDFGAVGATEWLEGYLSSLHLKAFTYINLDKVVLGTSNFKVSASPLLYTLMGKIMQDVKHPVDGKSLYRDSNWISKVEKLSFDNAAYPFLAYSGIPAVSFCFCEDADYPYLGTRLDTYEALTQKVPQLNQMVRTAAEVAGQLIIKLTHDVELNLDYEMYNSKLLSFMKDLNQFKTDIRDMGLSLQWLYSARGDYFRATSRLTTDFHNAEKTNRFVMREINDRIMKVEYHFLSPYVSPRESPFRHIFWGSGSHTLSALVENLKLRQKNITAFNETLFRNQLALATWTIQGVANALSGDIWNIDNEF

Binder	binding result [1]	binding result [2]
B1	no binding	
B2		no binding (tested: 250 nM)
B3		no binding (tested: 250 nM)
